Measured values taken from the Immune Epitope Database (IEDB).

Key:
HLA-A*02:01 = experiment: IEDB peptide-MHC binding, purified MHC/direct/fluorescence; filed as Kd, often an IC50 or EC50 that approximates it; ≥ and ≤ were set here for values at or beyond the usual limits of such assays
HLA-A*03:01 [1] = experiment: as above
HLA-A*24:03 = experiment: as above
HLA-A*29:02 = experiment: as above
HLA-A*68:02 [2] = experiment: as above
HLA-A*26:01 [3] = experiment: IEDB peptide-MHC binding, purified MHC/competitive/fluorescence; filed as Kd, often an IC50 or EC50 that approximates it; ≥ and ≤ were set here for values at or beyond the usual limits of such assays
HLA-A*69:01 [4] = experiment: as above; conditions: source organism: Zaire ebolavirus
HLA-B*15:01 [5] = experiment: as above
HLA-B*15:17 = experiment: as above
HLA-B*18:01 [6] = experiment: as above
HLA-B*27:03 = experiment: as above
HLA-B*39:01 [7] = experiment: as above
HLA-B*46:01 [8] = experiment: as above
HLA-B*51:01 [9] = experiment: as above
HLA-B*57:01 [10] = experiment: as above
HLA-A*02:03 [11] = experiment: as above; conditions: source organism: Cryptosporidium parvum Iowa II
HLA-A*03:01 [12] = experiment: as above; conditions: source organism: Cryptosporidium parvum Iowa II
HLA-A*68:02 [13] = experiment: as above; conditions: source organism: Cryptosporidium parvum Iowa II
HLA-A*01:01 = experiment: IEDB peptide-MHC binding, purified MHC/direct/fluorescence; filed as Kd, often an IC50 or EC50 that approximates it; ≥ and ≤ were set here for values at or beyond the usual limits of such assays
HLA-B*51:01 [14] = experiment: as above
HLA-A*30:01 = experiment: IEDB peptide-MHC binding, purified MHC/competitive/radioactivity; filed as Kd, often an IC50 or EC50 that approximates it; ≥ and ≤ were set here for values at or beyond the usual limits of such assays; conditions: source organism: Dengue virus 2 Jamaica/1409/1983
HLA-B*40:01 [15] = experiment: as above; conditions: source organism: Dengue virus 2 Jamaica/1409/1983
HLA-A*02:03 [16] = experiment: IEDB peptide-MHC binding, purified MHC/direct/fluorescence; filed as Kd, often an IC50 or EC50 that approximates it; ≥ and ≤ were set here for values at or beyond the usual limits of such assays
HLA-A*02:19 = experiment: as above
HLA-A*26:01 [17] = experiment: as above; conditions: source organism: Bacillus anthracis str. A0465
HLA-A*69:01 [18] = experiment: as above
HLA-B*18:01 [19] = experiment: as above
HLA-B*39:01 [20] = experiment: as above
HLA-B*46:01 [21] = experiment: as above
HLA-A*02:12 = experiment: as above
HLA-A*31:01 = experiment: as above
HLA-B*07:02 = experiment: as above
HLA-B*15:01 [22] = experiment: as above
HLA-B*40:01 [23] = experiment: as above
HLA-B*44:02 = experiment: as above
HLA-B*57:01 [24] = experiment: as above
HLA-B*58:01 = experiment: as above
HLA-A*11:01 = experiment: as above; conditions: source organism: Yellow fever virus
HLA-B*27:05 = experiment: as above
HLA-B*48:01 = experiment: as above
HLA-A*02:11 = experiment: as above; conditions: source organism: Sudan ebolavirus
[25] = source organism: Zaire ebolavirus
[26] = source organism: Cryptosporidium parvum Iowa II
[27] = source organism: Giardia lamblia ATCC 50803
[28] = source organism: Bacillus anthracis str. A0465
[29] = source organism: Reston ebolavirus - Reston
[30] = source organism: Yellow fever virus
[31] = source organism: Sudan virus - Boniface, Sudan,1976
[32] = source organism: Sudan ebolavirus

## KLWTSISCA
HLA-A*02:01; source organism: Sudan ebolavirus - Maleo (1979)
  Kd: 0.0082 µM
HLA-A*03:01 [1]; [25]
  Kd: ≥ 20 µM
HLA-A*24:03; [25]
  Kd: ≥ 20 µM
HLA-A*29:02; [25]
  Kd: ≥ 20 µM
HLA-A*68:02 [2]; [25]
  Kd: ≥ 20 µM
HLA-A*26:01 [3]; [25]
  Kd: ≥ 20 µM
HLA-A*69:01 [4]
  Kd: ≥ 20 µM
HLA-B*15:01 [5]; [25]
  Kd: ≥ 20 µM
HLA-B*15:17; [25]
  Kd: ≥ 20 µM
HLA-B*18:01 [6]; [25]
  Kd: ≥ 20 µM
HLA-B*27:03; [25]
  Kd: ≥ 20 µM
HLA-B*39:01 [7]; [25]
  Kd: ≥ 20 µM
HLA-B*46:01 [8]; [25]
  Kd: ≥ 20 µM
HLA-B*51:01 [9]; [25]
  Kd: ≥ 20 µM
HLA-B*57:01 [10]; [25]
  Kd: ≥ 20 µM

## KSWLVHWSL
HLA-A*02:03 [11]
  Kd: ≥ 20 µM
HLA-A*03:01 [12]
  Kd: ≥ 20 µM
HLA-A*26:01 [3]; [26]
  Kd: ≥ 20 µM
HLA-A*68:02 [13]
  Kd: ≥ 20 µM
HLA-B*15:01 [5]; [26]
  Kd: ≥ 20 µM
HLA-B*18:01 [6]; [26]
  Kd: ≥ 20 µM
HLA-B*27:03; [26]
  Kd: ≥ 20 µM
HLA-B*39:01 [7]; [26]
  Kd: ≥ 20 µM
HLA-B*46:01 [8]; [26]
  Kd: ≥ 20 µM
HLA-B*57:01 [10]; [26]
  Kd: 0.0328 µM

## LTAHYCFLY
HLA-A*01:01; [27]
  Kd: 0.007 µM
HLA-A*29:02; [27]
  Kd: ≤ 0.001 µM

## RERLSRMAI
HLA-B*51:01 [14]; source organism: dengue virus type 2
  Kd: ≥ 20 µM
HLA-A*30:01
  Kd: 0.828 µM
HLA-B*40:01 [15]
  Kd: 0.0296 µM

## RLLRFTGLF
HLA-A*02:03 [16]; [28]
  Kd: ≥ 20 µM
HLA-A*02:19; [28]
  Kd: ≥ 20 µM
HLA-A*26:01 [17]
  Kd: ≥ 20 µM
HLA-A*68:02 [2]; [28]
  Kd: ≥ 20 µM
HLA-A*69:01 [18]; [28]
  Kd: ≥ 20 µM
HLA-B*18:01 [19]; [28]
  Kd: ≥ 20 µM
HLA-B*39:01 [20]; [28]
  Kd: ≥ 20 µM
HLA-B*46:01 [21]; [28]
  Kd: ≥ 20 µM
HLA-B*51:01 [14]; [28]
  Kd: ≥ 20 µM

## RVSSDQSAL
HLA-B*51:01 [14]; source organism: Yellow fever virus 17D
  Kd: ≥ 20 µM

## SKLRALLTL
HLA-A*01:01; [29]
  Kd: ≥ 20 µM
HLA-A*02:01; [29]
  Kd: ≥ 20 µM
HLA-A*02:03 [16]; [25]
  Kd: ≥ 20 µM
HLA-A*02:12; [25]
  Kd: ≥ 20 µM
HLA-A*03:01 [1]; [29]
  Kd: ≥ 20 µM
HLA-A*24:03; [25]
  Kd: ≥ 20 µM
HLA-A*29:02; [29]
  Kd: ≥ 20 µM
HLA-A*31:01; [29]
  Kd: ≥ 20 µM
HLA-A*68:02 [2]; [25]
  Kd: ≥ 20 µM
HLA-A*69:01 [18]; [29]
  Kd: ≥ 20 µM
HLA-B*07:02; [29]
  Kd: ≥ 20 µM
HLA-B*15:01 [22]; [29]
  Kd: ≥ 20 µM
HLA-B*18:01 [19]; [29]
  Kd: ≥ 20 µM
HLA-B*39:01 [20]; [29]
  Kd: 0.618 µM
HLA-B*40:01 [23]; [29]
  Kd: ≥ 20 µM
HLA-B*44:02; [29]
  Kd: ≥ 20 µM
HLA-B*46:01 [21]; [29]
  Kd: ≥ 20 µM
HLA-B*57:01 [24]; [29]
  Kd: ≥ 20 µM
HLA-B*58:01; [29]
  Kd: ≥ 20 µM
HLA-A*26:01 [3]; [25]
  Kd: ≥ 20 µM
HLA-B*15:17; [25]
  Kd: ≥ 20 µM
HLA-B*27:03; [25]
  Kd: ≥ 20 µM
HLA-B*51:01 [9]; [25]
  Kd: ≥ 20 µM

## TKDTNDNNL
HLA-A*01:01; [30]
  Kd: ≥ 20 µM
HLA-A*02:01; [30]
  Kd: ≥ 20 µM
HLA-A*03:01 [1]; [30]
  Kd: ≥ 20 µM
HLA-A*11:01
  Kd: ≥ 20 µM
HLA-A*29:02; [30]
  Kd: ≥ 20 µM
HLA-A*31:01; [30]
  Kd: ≥ 20 µM
HLA-A*69:01 [18]; [30]
  Kd: ≥ 20 µM
HLA-B*07:02; [30]
  Kd: ≥ 20 µM
HLA-B*15:01 [22]; [30]
  Kd: ≥ 20 µM
HLA-B*18:01 [19]; [30]
  Kd: ≥ 20 µM
HLA-B*27:05; [30]
  Kd: ≥ 20 µM
HLA-B*40:01 [23]; [30]
  Kd: ≥ 20 µM
HLA-B*44:02; [30]
  Kd: ≥ 20 µM
HLA-B*46:01 [21]; [30]
  Kd: ≥ 20 µM
HLA-B*48:01; [30]
  Kd: ≥ 20 µM
HLA-B*57:01 [24]; [30]
  Kd: ≥ 20 µM
HLA-B*58:01; [30]
  Kd: ≥ 20 µM

## TMMRHRREL
HLA-A*01:01; [31]
  Kd: ≥ 20 µM
HLA-A*02:01; [31]
  Kd: ≥ 20 µM
HLA-A*02:03 [16]; [32]
  Kd: ≥ 20 µM
HLA-A*02:11
  Kd: ≥ 20 µM
HLA-A*02:12; [32]
  Kd: ≥ 20 µM
HLA-A*02:19; [32]
  Kd: ≥ 20 µM
HLA-A*03:01 [1]; [31]
  Kd: ≥ 20 µM
HLA-A*24:03; [32]
  Kd: ≥ 20 µM
HLA-A*29:02; [31]
  Kd: ≥ 20 µM
HLA-A*31:01; [31]
  Kd: ≥ 20 µM
HLA-A*68:02 [2]; [32]
  Kd: ≥ 20 µM
HLA-A*69:01 [18]; [31]
  Kd: ≥ 20 µM
HLA-B*15:01 [22]; [31]
  Kd: ≥ 20 µM
HLA-B*18:01 [19]; [31]
  Kd: ≥ 20 µM
HLA-B*27:05; [31]
  Kd: ≥ 20 µM
HLA-B*39:01 [20]; [31]
  Kd: ≥ 20 µM
HLA-B*40:01 [23]; [31]
  Kd: ≥ 20 µM
HLA-B*44:02; [31]
  Kd: ≥ 20 µM
HLA-B*46:01 [21]; [31]
  Kd: ≥ 20 µM
HLA-B*48:01; [31]
  Kd: ≥ 20 µM
HLA-B*57:01 [24]; [31]
  Kd: ≥ 20 µM
HLA-B*58:01; [31]
  Kd: ≥ 20 µM
HLA-A*26:01 [3]; [32]
  Kd: ≥ 20 µM
HLA-B*15:17; [32]
  Kd: ≥ 20 µM
HLA-B*27:03; [32]
  Kd: ≥ 20 µM
HLA-B*51:01 [9]; [32]
  Kd: ≥ 20 µM
